Laboratory results from patent US6342368B1, “WD-40-derived peptides and uses thereof” (The Board of Trustees of the Leland Stanford Junior …, priority 1994, dated 2002).
Entries after “also recorded” stand apart in the source; their conditions may differ.

Legend:
[1] = system: PKC binding to recombinant RACK1; test: Overlay / overlay-extraction assay: inhibition of PKC binding to recombinant RACK1 by peptides; set-up: species or system rat
Experimental: The variation in the overlay protocol consisted of incubating the putative binding peptides with a mixture of PKC isozymes for 15 minutes at room temperature before the mixture was used to contact the nitrocellulose strips containing immobilized RACK1.
Nitrocellulose strips containing immobilized RACK1, that had been contacted with a solution containing a mixture of PKC isozymes, were washed and the area corresponding to the 36 kDa (RACK1-containing) band was cut out. The pieces (containing PKC/RACK1 complexes) were incubated with sample buffer for 10 minutes at 80° C. The sample buffer and the nitrocellulose pieces were then placed in wells in the PAGE gel and subjected to SDS-PAGE to elute the bound proteins. The gel was blotted onto nitrocellulose and a Western blot analysis was carried out using the mixture of antibodies (specific for PKC α, β, γ, δ, ε and ζ isozymes) described in Example 1 part B. Bound antibodies were detected by ^125I-protein A.
Peptides derived from or homologous to WD-40 repeats of RACK1 were tested for their ability to inhibit PKC binding to recombinant RACK1. Binding of PKC to RACK1 was carried out using a variation of the overlay procedure described in Example 3 part B. In the experimental samples, peptides were incubated with a solution containing a mixture of rat brain PKC isozymes (˜10 nM each) for 15 minutes at room temperature.
Following completion of the modified overlay protocol, the samples were subjected to the overlay-extraction protocol detailed in part B, above.
The results in FIG. 3 show the binding of PKC to RACK1, carried out without (lane 1) or with (lanes 2-4) a preincubation of peptides with PKC. […] Peptide I caused an 81±6% inhibition of PKC binding to recombinant RACK1 as compared with binding in the absence of added peptide (n=3). Lanes 3 and 4 show PKC binding following a preincubation with 10 μM peptide rIII (SEQ ID NO:4) and 10 μM peptide rVI (SEQ ID NO:7), respectively. […] The results shown are representative of three independent experiments.

[2] = molecular target: T1, βPKC (Rattus norvegicus, UniProt P68403); test: Sensitivity of βPKC to Arg-C endopeptidase (nicking); type: biochemical; settings: low activators: 2.5 μg/ml PS and 50 μM CaCl2; for nicking of βPKC by Arg-C (78 kDa fragment): peptide 10 μM
T1 construct: All the solutions contained 5 nM rat brain PKC; from tissue; host or cells: rat brain
From the text: Upon activation of PKC, a pseudosubstrate autoinhibitory sequence at the N-terminus of the molecule dissociates from the catalytic site and becomes sensitive to endopeptidase Arg-C (Orr, et al.). In the absence of PKC activators, exposure of the 80 kDa βPKC to endopeptidase Arg-C has no effect on the enzyme (see FIG. 7, lane 1). In the presence of the PKC activators PS, DG and calcium, however, exposure of βPKC to Arg-C results in a “nicking” of the PKC (i.e. limited proteolysis generating a 78 kDa fragment and several small fragments (see FIG. 7, lane 2)). Continued exposure to Arg-C results in the disappearance of βPKC (Orr, et al.). The present experiment tests whether peptides derived from the WD-40 region of RACK1 alter the sensitivity of βPKC to endopeptidase Arg-C.
The methods used to assay Arg-C sensitivity are a modification of methods described by Orr, et al. Rat brain PKC (˜5 nM) was incubated at room temperature in 500 μl of 20 mM Tris-HCl buffer (pH 7.5) alone or with Arg-C (5 units/ml) in the presence or absence of the indicated peptides (final concentration 10 μM or as indicated), PS, DG, and calcium (as indicated). 50 μl aliquots were removed into 20 μl of sample buffer during the reaction as indicated (samples in all the lanes were incubated for 30 minutes , except lanes 5, and 6, which were incubated for 5 and 15 minutes, respectively). The samples were boiled for 10 minutes at 80° C. and loaded onto 8% SDS-PAGE. βPKC was detected by Western blot analysis using anti-βPKC antibodies as described in Examples 6 and 8.
PKC was incubated for the indicated time alone (lane 1) or in the presence of Arg-C (lanes 2-9), with DG (0.8 μg/ml), PS (50 μg/ml) and CaCl2 (1 mM; lane 2), with PS (50 μg/ml) and CaCl2 (1 mM; lane 3), with PS (2.5 μg/ml) and CaCl2 (50 μM; lane 4); with PS (2.5 μg/ml), CaCl2 (50 μM) and with either peptide rVI (SEQ ID NO:7; 10 μM; lanes 5-7), control peptide (SEQ ID NO:9; lane 8) or with peptide I (SEQ ID NO:1; lane 9).

[3] = molecular target: T1, βPKC; test: PKC overlay of peptides immobilized on nitrocellulose (slot blot); type: binding; settings: for binding of activated PKC to immobilized peptide: 5 nM rat brain PKC with PS; for binding of activated PKC to immobilized peptide / lowest peptide amount at which activated PKC bound: DG and calcium; for binding of unactivated PKC to immobilized peptide: 5 nM rat brain PKC without PS, DG, calcium; for lowest peptide amount at which activated PKC bound: PKC with PS, 0.5-10.0 μmole peptide applied
Experimental: The binding of βPKC to peptide I (SEQ ID NO:1), peptide rVI (SEQ ID NO:7) and control peptide (SEQ ID NO:9) was assessed using a PKC overlay assay similar to that described in Example 3. Increasing amounts of peptides (0.5 μmole, 1.0 μmole, 5.0 μmole and 10.0 μmole) suspended in 20 mM NaCl were applied individually onto nitrocellulose using a slot-blot apparatus (Schleicher and Schuell, Keene, N.H.). The nitrocellulose membrane was washed three times, 15 minutes per wash, in peptide overlay buffer and incubated for two hours in peptide overlay block buffer. The membrane was cut into sections and the sections were transferred to different PKC-containing solutions and incubated for 30 minutes at room temperature. All the solutions contained 5 nM rat brain PKC in peptide overlay buffer. Some solutions additionally contained PS, DG, and calcium. The membranes were then washed three times, 15 minutes per wash, in peptide overlay buffer and incubated in peptide overlay block buffer containing anti-βPKC monoclonal antibodies (1:1000 dilution; Seikagaku Kogyo, Tokyo, Japan). After a 16 hr incubation at room temperature, the filters were washed three times, 15 minutes per wash, in peptide overlay buffer.
Binding of PKC was determined using chemiluminescence as described in Example 3, part C. Quantitation of PKC binding was carried out using a “MICRO SCAN” 1000 gel analyzer (Galai Inc., Yokneam, Israel).

[4] = system: Xenopus oocytes; test: PKC-mediated Xenopus oocyte maturation (germinal vesicle breakdown, GVBD) after peptide microinjection; type: cell-based; settings: for dose dependence of effect on GVBD: between 5 μm-500 μM
[5] = peptide 50 μM alone, no insulin

T1 sequence (P68403 whole entry, the tested form may be a part): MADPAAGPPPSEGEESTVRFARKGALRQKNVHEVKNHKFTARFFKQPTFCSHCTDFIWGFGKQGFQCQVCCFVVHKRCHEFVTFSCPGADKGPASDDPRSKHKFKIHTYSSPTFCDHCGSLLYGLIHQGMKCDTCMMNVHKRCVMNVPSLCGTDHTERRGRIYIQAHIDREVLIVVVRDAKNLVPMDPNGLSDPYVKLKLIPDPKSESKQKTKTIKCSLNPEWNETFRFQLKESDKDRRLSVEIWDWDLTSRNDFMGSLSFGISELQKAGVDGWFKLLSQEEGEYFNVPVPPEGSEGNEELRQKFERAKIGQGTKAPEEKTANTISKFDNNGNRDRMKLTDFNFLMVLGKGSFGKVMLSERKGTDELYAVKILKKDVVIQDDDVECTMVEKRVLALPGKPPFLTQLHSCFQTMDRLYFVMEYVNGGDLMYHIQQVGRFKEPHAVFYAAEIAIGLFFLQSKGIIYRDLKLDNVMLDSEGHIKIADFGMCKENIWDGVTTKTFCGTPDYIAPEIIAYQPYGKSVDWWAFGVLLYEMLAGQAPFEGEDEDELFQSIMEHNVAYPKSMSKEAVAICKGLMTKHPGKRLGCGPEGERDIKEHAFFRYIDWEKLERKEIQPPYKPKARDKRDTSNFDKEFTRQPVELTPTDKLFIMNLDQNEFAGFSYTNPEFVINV

Substance: peptide rVI: eight amino acid peptide identical to a segment of RACK1 WD-40 repeat VI (DIINALCF)
- inhibition of PKC binding to RACK1 (in words) ([1]; 10 μM peptide preincubated with PKC): inhibit the binding of PKC to RACK1
- lowest peptide concentration sufficient to result in nicking activity [2]: 10 nM
- nicking of βPKC by Arg-C (78 kDa fragment) [2]: time-dependent appearance of the 78 kDa nicked PKC fragment
- binding of activated PKC to immobilized peptide [3]: bound
- binding of unactivated PKC to immobilized peptide [3]: did bind
- lowest peptide amount at which activated PKC bound [3]: 5 µmol
- dose dependence of effect on GVBD [4]: dose-dependent
- delay to initiation of maturation in the absence of insulin [4, 5]: 6 to 7 h
- induction of GVBD in the absence of insulin [4, 5]: induced oocyte maturation; also recorded: induced GVBD
- plateau % GVBD in the absence of insulin [4, 5]: about 50%

Substance: peptide I: 15-residue peptide homologous to a sequence in the sixth WD-40 repeat of RACK1; PKC antagonist (KGDYEKILVALCGGN)
- inhibition of PKC binding to recombinant RACK1 as compared with binding in the absence of added peptide ([1]; 10 μM peptide preincubated with PKC isozyme mixture 15 min, n=3): 81±6%
- nicking of βPKC by Arg-C (78 kDa fragment) [2]: did not result in appreciable nicking activity; also recorded: did not occur
- binding of activated PKC to immobilized peptide [3]: bound
- binding of unactivated PKC to immobilized peptide [3]: did not bind
- lowest peptide amount at which activated PKC bound [3]: 5 µmol
- dose dependence of effect on GVBD [4]: dose-dependent
